Assay [1] has as its system rat insulinoma beta-cells (INS-1). Description: Cell viability of INS-1 beta-cells exposed to free fatty acids (MTT assay). It counts as cell-based. To be noted: 48 hours, FGF21 compound = F1 50 nM, GLP-1 compound = G1 50 nM, mean +/- SEM. The protocol: (§1) This ex vivo example investigates the influence of FGF21 and GLP-1 compounds on FFA (free fatty acid) induced apoptosis of rat insulinoma beta-cells (INS-1).
(§2) Compound F1 (Prospec, cat. no. CYT-474) was used as the FGF21 compound, and compound G1 was used as the GLP-1 compound.
(§3) INS-1 cells were seeded in 96-well plates (50000 cells/well) and incubated overnight in cell medium (RPMI 1640 medium (Gibco, cat. no. 61870-010), supplemented with 10% FCS (Gibco, cat. no. 10085-140), 1% Pen/Strep (Gibco, cat. no. 15140-114) and 0.5 ml beta-mercaptoethanol (Gibco, cat. no. 31350-010 (50 mM)). The FGF21 compound (50 nM) and the GLP-1 compound (50 nM) were added to the cells 1 hour before the cells were to be exposed to FFA. The FFA's were prepared as follows: Stock solutions of palmitic acid (Sigma P5585) and oleic acid (Sigma 01383) of 1M in DMSO were mixed 1:2 and heated to 60 degree Celsius. The FFA mix was then diluted 10 times in 0.1M NaOH. This mixture was then further diluted in cell medium to yield a FFA concentration of 1 mM. The FFAs were then added to the cells to a final concentration of 0.35 mM. […]

Assay [2] concerns db/db mice. Kind of assay: Effect on blood glucose in vivo, subchronic study in db/db mice. To be noted: F1 0.5 mg/kg, G1 30 nmol/kg or both. The protocol:
This subchronic in vivo dosing study investigates the effect of GLP-1 and FGF21 compounds on blood glucose. The study was performed in db/db mice (as described in Example 5).
48 db/db mice, male, 11-12 weeks of age at study start.
Dosed subcutaneously 2 × daily with either (i) 0.5 mg/kg human FGF21 (compound F1; n=12); (ii) 30 nmol/kg of GLP-1 compound G1 (n=12); (iii) a combination of 0.5 mg/kg of compound F1 and 30 nmol/kg of compound G1 (n=12); or (iv) vehicle (sterile PBS buffer, n=12).
All groups were dosed for 21 days.
Blood samples of 10 μl were taken from the tip of the tail for blood glucose measurements once weekly.

The subject of assay [3] is rat insulinoma beta-cells (INS-1). Description: FFA induced apoptosis of INS-1 beta-cells (Caspase-3/7 assay). The class given is cell-based. The settings on record: 48 hours, FGF21 compound = F1 50 nM, GLP-1 compound = G1 50 nM, mean +/- SEM. The protocol: as §1, §2, §3
Assay [4] has the same test system. Description: Insulin accumulated in the medium of INS-1 cells during 48 hour incubation with FFA. The class given is cell-based. To be noted: for Insulin accumulated in the medium: 48 hours, FGF21 compound = F1 50 nM, GLP-1 compound = G1 50 nM, mean +/- SEM. The protocol:
as §1, §2
INS-1 cells were seeded in 96-well plates (50000 cells/well) and incubated overnight in cell medium (RPMI 1640 medium (Gibco, cat. no. 61870-010), supplemented with 10% FCS (Gibco, cat. no. 10085-140), 1% Pen/Strep (Gibco, cat. no. 15140-114) and 0.5 ml beta-mercaptoethanol (Gibco, cat. no. 31350-010 (50 mM)). The FGF21 compound (50 nM) and the GLP-1 compound (50 nM) were added to the cells 1 hour before the cells were to be exposed to FFA. The FFA's were prepared as follows: Stock solutions of palmitic acid (Sigma P5585) and oleic acid (Sigma 01383) of 1M in DMSO were mixed 1:2 and heated to 60 degree Celsius. The FFA mix was then diluted 10 times in 0.1M NaOH. This mixture was then further diluted in cell medium to yield a FFA concentration of 1 mM. The FFAs were then added to the cells to a final concentration of 0.35 mM. The cells were incubated for 48 hours and then the following three assays were performed: 1) Cell viability was assessed using the CellTiter 96® Non-radioactive Cell Proliferation Assay (MTT) from Promega, performed according to the manufacturer's instruction (absorbance at 550 nm, A550); 2) Apoptosis was assessed using the Apo-ONE® Homogeneous Caspase-3/7 Assay from Promega, performed according to the manufacturer's instruction (fluorescence); and 3) Insulin accumulated in the medium during the 48 hour incubation with FFA was analysed (as described in Example 3; ng/ml insulin).
The results of 1), 2) and 3) are shown in Tables 4, 5, and 6 below, respectively, all figures being mean+/−standard error of mean (SEM). […]

For assay [5], the system named is db/db mice. Kind of assay: Effect on blood glucose in vivo, acute study in db/db mice. To be noted: compound F1 0.125 mg/kg s.c. 1 × daily for 3 days and/or compound G4 1 nmol/kg s.c. one hour after last FGF21 dose, 0-48 hours post GLP-1 dose. The procedure: This acute in vivo study investigates the effect of FGF21 and GLP-1 compounds on blood glucose levels of db/db mice.
The db/db mouse is a hyperglycaemic, hyperinsulinaemic, hyperphagic and obese model of type 2 diabetes.
23 db/db mice (Male, C57BLKS db/db, from Taconic, Denmark, 15-16 weeks of age).
Dosed subcutaneously 1 × daily with 0.125 mg/kg human FGF21 (n=11) (compound F1) or vehicle (n=12) for 3 days. Vehicle was sterile PBS-buffer (DPBS, Gibco, cat. no. 14190).
Both groups of animals were then dosed with either vehicle or GLP-1 compound G4 at 1 nmol/kg (n=5-6). The G4 compound is a GLP-1 analogue which has an extended half-life due to its derivatisation with an albumin binder. The GLP-1 or vehicle dose was given subcutaneously one hour after the last FGF21 or vehicle dose.
Blood samples of 10 μl were taken from the tip of the tail for the measurement of blood glucose from 0-48 hours post dose of the GLP-1 compound.
Results were analysed using the area under the glucose curve (AUC) for the vehicle group, the GLP-1 group, the FGF21 group and the combined group.
The expected AUC was calculated using the following formula: […]
AUCvehicle−((AUCvehicle−AUCFGF212)+(AUCvehicle−AUCGLP-1))

B1: Met-FGF21_human (protein, listed as Homo sapiens)
chain: HPIPDSSPLLQFGGQVRQRYLYTDDAQQTEAHLEIREDGTVGGAADQSPESLLQLKALKPGVIQILGVKTSRFLCQRPDGALYGSLHFDPEACSFRELLLEDGYNVYQSEAHGLPLHLPGNKSPHRDPAPRGPARFLPLPGLPPALPEPPGILAPQPPDVGSSDPLSMVGPSQGRSPSYAS
modifications: N-terminal Met; mat_peptide (1)..(181); DISULFID (75)..(93)
Consider B1, for which the “Cell viability (MTT assay, A550)” value is 1.19 +/− 0.05 in assay [1] (FFA 0.00 mM) and 0.28 +/− 0.01 in assay [1] (FFA 0.35 mM). The Blood glucose in assay [2] (Day 0, s.c. 2 × daily) worked out at 19.9 ± 1.2 mmol/L; in assay [2] (Day 7, s.c. 2 × daily) it was 17.2 ± 1.3 mmol/L; in assay [2] (Day 14, s.c. 2 × daily) it was 16.2 ± 1.8 mmol/L; in assay [2] (Day 21, s.c. 2 × daily) it was 19.2 ± 3.0 mmol/L. In addition, the “Apoptosis (Caspase 3/7 assay, fluorescense)” value in assay [3] (FFA 0.00 mM) is listed as 1827 +/− 22; in assay [3] (FFA 0.35 mM), 33278 +/− 1254. Besides, the “Insulin accumulated in the medium” value was 1011 ± 112 ng/mL in assay [4] (FFA 0.00 mM) and 569 ± 14 ng/mL in assay [4] (FFA 0.35 mM). For the same molecule, in assay [4] (absence of free fatty acids, F1 50 nM), the “stimulation of insulin release” value is reported as “does not stimulate insulin release”. The “Glucose lowering capacity (AUC), blood glucose AUC0-48 h, mean” value in assay [5] came out at 389.8 mM·min.

These data come from patent US20120172298A1, “GLP-1 AND FGF21 COMBINATIONS FOR TREATMENT OF DIABETES TYPE 2” (Novo Nordisk A/S, priority 2009, published 2012).
